Target: Gal4 DNA-Binding Domain (DBD) linked to the LOV domain of WC-1 (N. crassa) (UniProt Q01371)
Test: two-hybrid; Y2H-like optogenetic switch (FUN-LOV variants) in S. cerevisiae BY4741 or 59A-EC1118; genome-integrated luciferase reporter under P_GAL1 or P_5XGAL1; constant blue light or a single 2-h blue-light pulse (466 nm, 24 umol m^-2 s^-1) compared with constant darkness; 25°C, SC medium with 1 mM luciferin

UniProt Q01371, sequence (Q01371 381-508): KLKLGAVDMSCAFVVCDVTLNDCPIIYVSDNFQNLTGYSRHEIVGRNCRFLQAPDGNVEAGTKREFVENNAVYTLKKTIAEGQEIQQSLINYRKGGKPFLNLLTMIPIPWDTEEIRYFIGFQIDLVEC

fold induction of luciferase expression (blue-light pulse / darkness), 59A-EC1118 strain, P 5XGAL1-Luc: 982 fold
Substance: Gal4-activation domain (AD) tethered to the LOV domain of VVD (from UniProt Q9C3Y6 1-186) (domain or fragment)
